# Laboratory results taken from paper PMC5290276, “A quantized mechanism for activation of pannexin channels” (Nature Communications, 2017).
# B1: full-length human PANX1 (Pannexin 1) with a C-terminal enterokinase cleavage site and hexahistidine tag (natural protein, UniProt Q96RD7-1 1-426, looked up)
# chain: MAIAQLATEYVFSDFLLKEPTEPKFKGLRLELAVDKMVTCIAVGLPLLLISLAFAQEISIGTQISCFSPSSFSWRQAAFVDSYCWAAVQQKNSLQSESGNLPLWLHKFFPYILLLFAILLYLPPLFWRFAAAPHICSDLKFIMEELDKVYNRAIKAAKSARDLDMRDGACSVPGVTENLGQSLWEVSESHFKYPIVEQYLKTKKNSNNLIIKYISCRLLTLIIILLACIYLGYYFSLSSLSDEFVCSIKSGILRNDSTVPDQFQCKLIAVGIFQLLSVINLVVYVLLAPVVVYTLFVPFRQKTDVLKVYEILPTFDVLHFKSEGYNDLSLYNLFLEENISEVKSYKCLKVLENIKSSGQGIDPMLLLTNLGMIKMDVVDGKTPMSAEMREEQGNQTAELQGMNIDSETKANNGEKNARQRLLDSSC
# notes: Pannexin 1 (PANX1), human, NM_015368, isoform 1, 426 a.a., full length; No removal of the tag by enterokinase is described; The purified protein was probed with anti-pentaHis in a purity western; also called full-length PANX1; source: Sf9 (baculovirus), purified from membranes (TALON cobalt resin, amphipol A8-35 exchange, SEC)
# Key:
# [1] = biological target: 2(1CT)-GFP, GFP-tagged tandem dimer linking a full-length PANX1 subunit to a C-terminally truncated PANX1 subunit (human) (UniProt Q96RD7); assay: single-molecule photobleaching (TIRF microscopy), subunit counting; GFP-tagged concatemers in the plasma membrane of HEK293T cells 5-7 h after transfection; photobleaching steps fitted by binomial distributions assuming ~65% of GFP is fluorescent
# [2] = biological target: caspase 3-cleaved PANX1 (C-terminally cleaved human PANX1) (human); assay: SEC; purified PANX1 in amphipol A8-35 on an SRT-C 300 column (Sepax); oligomer size judged from the elution volume
# [3] = biological target: 3(2CT)-GFP, GFP-tagged trimeric concatemer of two full-length PANX1 subunits and a C-terminally truncated PANX1 subunit (human) (UniProt Q96RD7); assay: single-molecule photobleaching (TIRF microscopy), subunit counting; GFP-tagged concatemers in the plasma membrane of HEK293T cells 5-7 h after transfection; photobleaching steps fitted by binomial distributions assuming ~65% of GFP is fluorescent
# [4] = biological target: 3(2CT)-GFP, GFP-tagged trimeric concatemer of two full-length PANX1 subunits and a C-terminally truncated PANX1 subunit (human) (UniProt Q96RD7); assay: cross-linking; HEK293T cells surface-biotinylated (Sulfo-NHS-LC-Biotin, 4 °C, 30 min), then cross-linked with 1.8 mM disuccinimidyl suberate at 4 °C for 1 h; streptavidin precipitation and western blot; not quantitative according to the paper
# [5] = biological target: the molecule itself; assay: SEC; purified PANX1 in amphipol A8-35 on an SRT-C 300 column (Sepax); oligomer size judged from the elution volume
molecule,measurement,setting,value
"2(1CT)-GFP, GFP-tagged tandem dimer linking a full-length PANX1 subunit to a C-terminally truncated PANX1 subunit (from UniProt Q96RD7 1-426)",stoichiometry N,[1],3
caspase 3-cleaved PANX1 (C-terminally cleaved human PANX1) (domain or fragment),stoichiometry N,[2],6
"3(2CT)-GFP, GFP-tagged trimeric concatemer of two full-length PANX1 subunits and a C-terminally truncated PANX1 subunit (from UniProt Q96RD7 1-426; Q96RD7 1-426)",stoichiometry N,[3],2
same,stoichiometry N,[4],2
B1,stoichiometry N,[5],6
